Experimental data published in US20260109764A1 (CAEDO ONCOLOGY, published 2026).
Where “and” joins values, the source holds several entries; their conditions need not be identical. Equal entries are not always repeated. One block for each binder: values may come before it.

Tests used:
[1] = biological target: T1, recombinant biotinylated CD47 (recCD47, SinoBiological 12283-H27H-B) (UniProt Q08722 19-139, biotinylated (AVI-tag)); experiment: SPR Biacore S200, biotinylated recCD47 on SA chip, scFv as analyte, single-cycle, 1:1 model, 25 C
T1 construct: Bought protein; also called recombinant CD47
Experimental: (§1) The affinity of CO-1 scFv to CD47 was determined via surface plasmon resonance (SPR) on a Biacore S200 system. Recombinant biotinylated CD47 was immobilized on an SA streptavidin chip to a level of 100 RU (in 10 mM NaAc pH 5.0). CO-1 scFv reacted with recombinant CD47 at gradient concentrations
(§2) A 1:1 binding model was used to fit the data. All curves are well fitted to the 1:1 model.

[2] = biological target: T2, human CD47, cell-surface (on Jurkat cells, human red blood cells) (human, UniProt Q08722 19-323); experiment: flow cytometry on Jurkat cells, detection with anti-His6-FITC, four parameter curve fit
T2 construct: also called Integrin Associated protein (IAP); MER6
Experimental: PBS-washed cancer cell lines or RBCs were pelleted and washed with washing buffer (3% (w/v) BSA, 1% (w/v) sodium azide in PBS) and incubated with Human BD Fc Block for 10 minutes before being plated into a round-bottom 96 well plate (2.5×10⁵ cells per well). The cells were then incubated with various concentrations of CO-1 scFv, or appropriate isotype controls as indicated for 1 h on ice with slight agitation. All samples were prepared in duplicates. Cells were washed twice, resuspended in cold His staining solution (1 μg/ml His₆-FITC in washing buffer), and incubated for 30 minutes on ice with slight agitation. Cells were analyzed by flow cytometry after two washes. Excitation wavelength FITC: 488 nm, detection: 530/30 nm.
The cells were incubated with increasing concentrations of CO-1 scFv, or isotype control, followed by incubation with an anti-His, FITC secondary antibody. […] The EC₅₀ for CO-1 scFv was analyzed by four parameter […] curve fitting in GraphPad and determined to be 0.05 ng/ml.

[3] = biological target: T1, recombinant biotinylated CD47 (recCD47, …); experiment: SPR Biacore S200, biotinylated recCD47 on SA chip, fusion protein as analyte, single-cycle, 1:1 model, 25 C
Experimental: as §1, with “The binding” for “The”, “of CO201-scFv-Fc-mono as described in Example 4” for “of CO-1 scFv”, “5.0). CO201-scFv-Fc-mono” for “5.0). CO-1 scFv”
as §2

[4] = biological target: T2, human CD47, cell-surface (on Jurkat …); experiment: cell-based or functional assay
[5] = biological target: T1, recombinant biotinylated CD47 (recCD47, …); experiment: SPR Biacore S200, biotinylated recCD47 on SA chip, scFv as analyte, single-cycle, 1:1 model, 25 C; remark: listed apart in the source
Experimental: The binding affinity of the huCO-mAbs to CD47 was determined via surface plasmon resonance (SPR) on a Biacore S200 system. Recombinant biotinylated CD47 was immobilized on an SA streptavidin chip to a level of 100 RU (in 10 mM NaAc pH5.0). […]
A 1:1 binding model was used to fit the data. All curves are well fitted to the 1:1 model. […] The affinity constant KD is calculated as kd/kₐ.

[6] = biological target: T2, human CD47, cell-surface (on Jurkat …); experiment: flow cytometry, FITC-conjugated scFv on Jurkat cells, FITC MFI against log µg/ml
Experimental: FIG. 5: Binding of huCO-scFv to Jurkat cells. Jurkat cells incubated with increasing concentrations of FITC-conjugated huCO-scFv. FITC-intensity was analyzed by flow cytometry.
DPBS-washed cancer cell lines or RBCs were pelleted and washed with washing buffer (3% (w/v) BSA, 1% (w/v) sodium azide in DPBS) and incubated with Human BD Fc Block for 10 minutes before being plated into a round-bottom 96 well plate (2.5×10⁵ cells per well). The cells were then incubated with various concentrations of FITC-conjugated huCO-scFv, or human IgG4 isotype control as indicated for 1h on ice with slight agitation. All samples were prepared in duplicates. The cells were analyzed by flow cytometry after three washes in washing buffer. Excitation wavelength FITC: 488 nm, detection: 530/30 nm.

[7] = biological target: T2, human CD47, cell-surface (on Jurkat …); experiment: flow cytometry on stimulated normal human B cells, FITC MFI against log µg/ml
Experimental: FIG. 6: Hemagglutination and binding of red blood cells (RBCs) by huCO-scFv. (A) 2% RBCs (v/v in PBS) were incubated with increasing concentrations of the indicated antibodies or fragments for 30 minutes. A small punctate circle indicates no hemagglutination, while a diffuse hazy pattern indicates hemagglutination. (B) 2% RBCs (v/v in PBS) were incubated with increasing concentrations of FITC-conjugated CO201-scFv and analyzed by flow cytometry. (C and D) B cells were isolated from buffycoats of healthy human donors using CD19 Dynabeads and stimulated with 1 μg/ml CpG and RP105 for 24 hours. (C) B cells were incubated with the indicated antibodies or fragments at increasing concentrations and analyzed for binding by flow cytometry. (D) B cells were incubated with the indicated antibodies or fragments at concentrations in μg/ml for 3 hours, followed by staining with Annexin V and 7-AAD. % PCD=Annexin V-positive cells.

[8] = biological target: T2, human CD47, cell-surface (on Jurkat …); experiment: flow cytometry on Jurkat cells, FITC MFI against log µg/ml

T1 sequence (Q08722 19-139 limits assumed): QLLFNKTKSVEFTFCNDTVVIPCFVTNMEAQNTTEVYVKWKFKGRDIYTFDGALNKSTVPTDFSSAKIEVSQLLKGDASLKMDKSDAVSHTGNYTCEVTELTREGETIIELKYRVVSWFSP
T2 sequence (Q08722 19-323 limits assumed): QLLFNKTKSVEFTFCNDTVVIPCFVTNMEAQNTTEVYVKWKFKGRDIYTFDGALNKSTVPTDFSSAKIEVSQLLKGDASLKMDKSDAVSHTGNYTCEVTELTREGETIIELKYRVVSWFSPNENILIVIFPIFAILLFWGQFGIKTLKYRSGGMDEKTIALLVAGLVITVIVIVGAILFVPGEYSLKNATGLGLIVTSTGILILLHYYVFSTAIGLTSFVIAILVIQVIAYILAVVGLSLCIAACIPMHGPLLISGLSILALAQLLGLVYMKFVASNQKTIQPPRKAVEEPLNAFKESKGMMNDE

B3: CO201-scFv (scFv)
scFv: QVQLVQSGSELKKPGASVKVSCKASGYTFTNFGMHWVRQAPGQGLEWMGWINTYTGEPTYTDDFKGRFVFSLDTSVSTAYLQISSLKAEDTAVYYCARGDYRYGDSWGQGTTVTVSSGGGGSGGGGSGGGGSDIVMTQTPLSLSVTPGQPASISCRSSQSLVHSNGKTYLHWYLQKPGQPPQLLIYRVSNRFSGVPDRFSGSGSGTDFTLKISRVEAEDVGVYYCSQSTHVPFTFGQGTKLEIK
notes: FITC-conjugated in the flow cytometry assays, unconjugated in SPR; also called huCO-scFv (collective); humanized scFv version of CO201
- programmed cell death (PCD) of Jurkat cells, Annexin V-positive cells after 3 hours [4]: ~60%
- Kd [5]: 0.061 nM
- koff [5]: 0.00026 s⁻¹
- kon [5]: 4.3e+06 M⁻¹ s⁻¹
- EC50 (read off the curve) [6]: ~2 µg/mL

B5: CO213-scFv (scFv)
scFv: QVQLVQSGSELKKPGASVKVSCKASGYTFTNFGMHWVRQAPGQGLKWMGWINTYTGEPTYTDDFKGRFVFSLDTSVSTAYLQISSLKAEDTAVYYCARGDYRYGDSWGQGTTVTVSSGGGGSGGGGSGGGGSDIVMTQTPLSLSVTPGQPASISCRSSQSLVHSNGKTYLHWYLQKPGQPPQLLIYRVSNRFSGVPDRFSGSGSGTDFTLKISRVEAEDVGVYYCSQSTHVPFTFGQGTKLEIK
modifications: FITC-conjugated in the flow cytometry assays, sites not stated; unconjugated in SPR.
notes: FITC-conjugated in the flow cytometry assays, unconjugated in SPR; also called huCO-scFv (collective)
- programmed cell death (PCD) of Jurkat cells, Annexin V-positive cells after 3 hours [4]: ~60%
- Kd [5]: 0.048 nM
- koff [5]: 0.00021 s⁻¹
- kon [5]: 4.4e+06 M⁻¹ s⁻¹
- EC50 (read off the curve) [6]: ~1 µg/mL

B6: CO-1.4 (antibody, V domains shown)
VH: QIQLVQSGPELKKPGETVKISCKASGYTFTNFGMHWVKQAPGKGLKWMGWINTYTGEPTYTDDFKGRFAFSLETSASTAYLQINSLKNEDTATFFCTRGDYRYGDSWGQGTTLTVSS
VL: DVVMTQTPLSLPVSLGDQASISCRSSQSLVHSNGKTYLHWYLQKPGQSPKLLIYRVSNRFSGVPDRFSGSGSGTDFTLKISRIEAEDLGVYFCSQSTHVPFTFGSGTKLEIK
notes: Divalent comparator antibody against CD47; also called full length IgG4 format of the CO-1 antibody; chimeric IgG4 comparator antibody
- EC50 (read off the curve) [8]: ~0.3 µg/mL
- EC50 (read off the curve) [7]: ~0.2 µg/mL

Now from value to binder, other results behind:

- Kd [1]: 0.179 nM and 0.18 nM
- koff [1]: 0.0056 s⁻¹
- kon [1]: 3.1e+07 M⁻¹ s⁻¹
- EC50 [2]: 0.05 ng/mL
B1: CO-1 scFv (scFv)
scFv: QIQLVQSGPELKKPGETVKISCKASGYTFTNFGMHWVKQAPGKGLKWMGWINTYTGEPTYTDDFKGRFAFSLETSASTAYLQINSLKNEDTATFFCTRGDYRYGDSWGQGTTLTVSSGGGGSGGGGSGGGGSDVVMTQTPLSLPVSLGDQASISCRSSQSLVHSNGKTYLHWYLQKPGQSPKLLIYRVSNRFSGVPDRFSGSGSGTDFTLKISRIEAEDLGVYFCSQSTHVPFTFGSGTKLEIK
notes: Murine VH and VL of mCO-1 in single chain format; Detected on cells with anti-His6-FITC, so it carries a His tag; also called CO-1 scFv fragment; scFv fragment of mCO-1

- Kd [3]: 0.097 nM
- koff [3]: 0.0027 s⁻¹
- kon [3]: 2.8e+07 M⁻¹ s⁻¹
B2: CO201-scFv-Fc-mono (Fc fusion)
chain 1: QVQLVQSGSELKKPGASVKVSCKASGYTFTNFGMHWVRQAPGQGLEWMGWINTYTGEPTYTDDFKGRFVFSLDTSVSTAYLQISSLKAEDTAVYYCARGDYRYGDSWGQGTTVTVSSGGGGSGGGGSGGGGSDIVMTQTPLSLSVTPGQPASISCRSSQSLVHSNGKTYLHWYLQKPGQPPQLLIYRVSNRFSGVPDRFSGSGSGTDFTLKISRVEAEDVGVYYCSQSTHVPFTFGQGTKLEIKSKYGPPCPSCPAPEFLGGPSVFLFPPKPKDTLMISRTPEVTCVVVDVSQEDPEVQFNWYVDGVEVHNAKTKPREEQFNSTYRVVSVLTVLHQDWLNGKEYKCKVSNKGLPSSIEKTISKAKGQPREPQVYTLPPSQEEMTKNQVSLWCLVKGFYPSDIAVEWESNGQPENNYKTTPPVLDSDGSFFLYSRLTVDKSRWQEGNVFSCSVMHEALHNHYTQKSLSLSLGK
chain 2: SKYGPPCPSCPAPEFLGGPSVFLFPPKPKDTLMISRTPEVTCVVVDVSQEDPEVQFNWYVDGVEVHNAKTKPREEQFNSTYRVVSVLTVLHQDWLNGKEYKCKVSNKGLPSSIEKTISKAKGQPREPQVYTLPPSQEEMTKNQVSLSCAVKGFYPSDIAVEWESNGQPENNYKTTPPVLDSDGSFFLVSRLTVDKSRWQEGNVFSCSVMHEALHNHYTQKSLSLSLGK
notes: Knob-hole heterodimer with a single scFv, 77.3 kDa; FITC-conjugated in the flow cytometry assay on RBCs; also called huCO201-scFv-Fc-mono; huCO-scFv-Fc-mono

- Kd [5]: 0.033 nM
- koff [5]: 0.00017 s⁻¹
- kon [5]: 5.1e+06 M⁻¹ s⁻¹
- EC50 (read off the curve) [7]: ~4 µg/mL
- EC50 (read off the curve) [6]: ~2 µg/mL
B4: CO209-scFv (scFv)
scFv: QVQLVQSGSELKKPGASVKVSCKASGYTFTNFGMHWVRQAPGQGLEWMGWINTYTGEPTYTDDFKGRFVFSLDTSVSTAYLQISSLKAEDTAVYYCARGDYRYGDSWGQGTTVTVSSGGGGSGGGGSGGGGSDIVMTQTPLSLSVTPGQPASISCRSSQSLVHSNGKTYLHWYLQKPGQSPKLLIYRVSNRFSGVPDRFSGSGSGTDFTLKISRVEAEDVGVYYCSQSTHVPFTFGQGTKLEIK
modifications: FITC-conjugated in the flow cytometry assays, sites not stated; unconjugated in SPR.
notes: as for B5
- programmed cell death (PCD) of Jurkat cells, Annexin V-positive cells after 3 hours [4]: ~60%
